Source: patent US20260242478A1 (published 2026)
Where no end group is shown, it is not given here.

B1: Phage-1438 (peptide-92 library clone, SEQ ID NO: 1734) (peptide)
peptide: TCSAGAGYPWPLCY
notes: Tested as clonal phage supernatant; not shown: fused to the pIII filament of the bacteriophage
B2: Phage-1433 (peptide-92 library clone, SEQ ID NO: 1729) (peptide)
peptide: PCAAGAMWPWPVCL
notes: as for B1
B3: Phage-1436 (peptide-92 library clone, SEQ ID NO: 1732) (peptide)
peptide: TCSAGAMWTWPYCF
notes: as for B1
B4: Phage-1431 (peptide-92 library clone, SEQ ID NO: 1727) (peptide)
peptide: LCKPGVPNSWPTCL
notes: as for B1
B5: Phage-1437 (peptide-92 library clone, SEQ ID NO: 1733) (peptide)
peptide: TCAAGAYWTWPACF
notes: as for B1
B6: Phage-1435 (peptide-92 library clone, SEQ ID NO: 1731) (peptide)
peptide: MCSAGAMYPWPLCL
notes: as for B1
B7: Phage-1434 (peptide-92 library clone, SEQ ID NO: 1730) (peptide)
peptide: LCNAGAMYKWPTCL
notes: as for B1
B8: Phage-1432 (peptide-92 library clone, SEQ ID NO: 1728) (peptide)
peptide: TCSAGAHYPWPDCI
notes: as for B1
B9: Phage-1440 (peptide-92 library clone, SEQ ID NO: 1736) (peptide)
peptide: TCSAGATWAWPSCF
notes: as for B1
B10: Phage-1441 (peptide-92 library clone, SEQ ID NO: 1737) (peptide)
peptide: TCSAGAHYVWPMCF
notes: as for B1
B11: Phage-1439 (peptide-92 library clone, SEQ ID NO: 1735) (peptide)
peptide: SCSAGASLQLSICL
notes: as for B1
B12: Phage-2826 (Peptide-180 library clone) (peptide)
peptide: SSNWCTPAWMCVTS
B13: Phage-2833 (Peptide-180 library clone) (peptide)
peptide: EVKWCTPYWMCIDT
B14: Phage-2831 (Peptide-180 library clone) (peptide)
peptide: AFPSCIPEWMCSGM
B15: Phage-2825 (Peptide-180 library clone) (peptide)
peptide: YHKWCTPEWMCVFD
B16: Phage-2830 (Peptide-180 library clone) (peptide)
peptide: QAIWCIPDWMCVQN
B17: Phage-2829 (Peptide-180 library clone) (peptide)
peptide: DVKWCTPRWMCELS
B18: Phage-2834 (Peptide-180 library clone) (peptide)
peptide: NTNWCTPPWMCEGL
B19: Phage-2827 (Peptide-180 library clone) (peptide)
peptide: LEKWCIPSQLCQLD
B20: Phage-2828 (Peptide-180 library clone) (peptide)
peptide: GEKWCSPAWMCEWL
B21: Phage-2832 (Peptide-180 library clone) (peptide)
peptide: EFKWCSPAQLCVNG
B22: Phage-1382 peptide (SEQ ID NO: 1678) (peptide)
peptide: SCAAGAMYSWPTCL
B23: Phage-1376 peptide (SEQ ID NO: 1672) (peptide)
peptide: TCAAGATYAWPYCV
B24: Phage-1386 peptide (SEQ ID NO: 1682) (peptide)
peptide: TCSAGATYTWSKCF
B25: Phage-1380 peptide (SEQ ID NO: 1676) (peptide)
peptide: RCSAGFHYPLSLCL
B26: Phage-1375 peptide (SEQ ID NO: 1671) (peptide)
peptide: TCAAGANWEWPWCF
B27: Phage-1387 peptide (SEQ ID NO: 1683) (peptide)
peptide: LCNAGATYSWPTCL
B28: Phage-1377 peptide (SEQ ID NO: 1673) (peptide)
peptide: TCAAGAAYPWPLCF
B29: Phage-1388 peptide (SEQ ID NO: 1684) (peptide)
peptide: TCSAGATYTWPWCF
B30: Phage-1384 peptide (SEQ ID NO: 1680) (peptide)
peptide: LCAAGAHYPWPQCL
B31: Phage-1379 peptide (SEQ ID NO: 1675) (peptide)
peptide: MCSAGANWPWPLCF
B32: Phage-1378 peptide (SEQ ID NO: 1674) (peptide)
peptide: TCSAGASNKLSLCL
B33: Phage-1385 peptide (SEQ ID NO: 1681) (peptide)
peptide: TCAAGAHWPWPTCF
B34: Phage-1383 peptide (SEQ ID NO: 1679) (peptide)
peptide: NCSAGAQWPWPICL
B35: Phage-1374 peptide (SEQ ID NO: 1670) (peptide)
peptide: MCAAGFHYPWPACL
modifications: cysteine pairing not given here; also: fused to phage pIII protein
B36: Phage-1381 peptide (SEQ ID NO: 1677) (peptide)
peptide: NCSAGATYPWPLCL

biological target: T1, Anti-CD28 Fab (SEQ ID NOs: 696, 697); assay: phage binding ELISA on captured anti-CD28 Fab, wells pre-incubated with CD28 antigen as competitor
T1 construct: In the phage ELISA the Fab was biotinylated and captured on neutravidin coated plates
T1 sequence (VH, as listed by the source, chain 1 of 2): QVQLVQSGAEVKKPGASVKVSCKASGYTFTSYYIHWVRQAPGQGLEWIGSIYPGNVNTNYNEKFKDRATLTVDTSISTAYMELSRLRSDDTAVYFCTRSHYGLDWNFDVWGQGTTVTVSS
T1 sequence (VL, as listed by the source, chain 2 of 2): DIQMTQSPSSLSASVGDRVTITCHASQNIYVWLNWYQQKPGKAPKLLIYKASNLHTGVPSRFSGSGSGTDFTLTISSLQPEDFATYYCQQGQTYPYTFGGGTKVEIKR
Description: (§1) Clonal phage were harvested as crude supematants and screened via standard ELISAs. […] Prior to the addition of clonal phage, wells were incubated with blocking buffer and CD28 antigen or blocking buffer alone. Without washing or aspirating, clonal phage supematants were then added to the wells and incubated for a short time. Wells were then washed followed by detection of bound phage using a horse radish conjugated anti-M13 antibody. Clonal phage of interest were then sent for sequence analysis.

Row | Binder | Anti-CD28 Fab signal in the presence of CD28 (phage binding ELISA)
1 | B1 | 0.08
2 | B2 | 0.06
3 | B3 | 0.08
4 | B4 | 0.06
5 | B5 | 0.09
6 | B6 | 0.07
7 | B7 | 0.06
8 | B8 | 0.07
9 | B9 | 0.1
10 | B10 | 0.17
11 | B11 | 0.06

biological target: T1, Anti-CD28 Fab (SEQ ID NOs: 696, 697); assay: phage binding ELISA; biotinylated anti-CD28 Fab on neutravidin plate, bound phage detected with anti-M13-HRP;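 also: clonal phage tested as crude supernatants, given a short incubation in the Fab-captured wells before bound phage were read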
Description: as §1

Row | Binder | Anti-CD28 Fab signal (phage binding ELISA)
12 | B1 | 1.92
13 | B2 | 1.95
14 | B3 | 1.93
15 | B4 | 1.95
16 | B5 | 1.93
17 | B6 | 1.93
18 | B7 | 1.94
19 | B8 | 1.95
20 | B9 | 1.92
21 | B10 | 1.91
22 | B11 | 1.92

biological target: T2, PSMA Fab (006 PSMA Fab); assay: phage ELISA; PSMA Fab on plate pre-incubated with PSMA antigen as competitor, anti-M13 HRP detection;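 also: crude clonal phage supernatants added to Fab-coated wells still holding PSMA antigen in blocking buffer, with bound phage as read-out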
T2 construct: In the phage ELISA the PSMA Fab was biotinylated and captured on neutravidin coated plates; also called Anti-PSMA Fab; anti-PSMA Fab
Description: (§2) Clonal phage were harvested as crude supernatants and screened via standard ELISAs. […] Prior to the addition of clonal phage. wells were incubated with blocking buffer and PSMA antigen or blocking buffer alone. Without washing or aspirating, clonal phage supernatants were then added to the wells and incubated for a short time. Wells were then washed followed by detection of bound phage using a horse radish conjugated anti-M13 antibody.

Row | Binder | phage binding ELISA signal (Anti-PSMA Fab, PSMA antigen present)
23 | B12 | 0.0627
24 | B13 | 0.072
25 | B14 | 0.149
26 | B15 | 0.0666
27 | B16 | 0.137
28 | B17 | 0.0913
29 | B18 | 0.0664
30 | B19 | 0.0743
31 | B20 | 0.0817
32 | B21 | 0.0526

biological target: T3, Anti-CD28 Fab (SEQ ID NOs: 696, 697); assay: phage ELISA on plate-bound anti-CD28 Fab pre-incubated with CD28 antigen as competitor
T3 construct: In the phage ELISA the Fab was biotinylated and captured on neutravidin coated plates
T3 sequence (VH, as listed by the source, chain 1 of 2): as the sequence (VH, as listed by the source, chain 1 of 2) above
T3 sequence (VL, as listed by the source, chain 2 of 2): as the sequence (VL, as listed by the source, chain 2 of 2) above
Description: (§3) Clonal phage were harvested as crude supematants and screened via standard ELISAs. […] Prior to the addition of clonal phage, wells were incubated with blocking buffer and CD28 antigen or blocking buffer alone. Without washing or aspirating, clonal phage supematants were then added to the wells and incubated for a short time. Wells were then washed followed by detection of bound phage using a horse radish conjugated anti-M13 antibody.

Row | Binder | Anti-CD28 Fab signal in the presence of CD28 (phage binding ELISA)
33 | B22 | 0.08
34 | B23 | 0.09
35 | B24 | 0.06
36 | B25 | 0.06
37 | B26 | 0.08
38 | B27 | 0.06
39 | B28 | 0.11
40 | B29 | 0.07
41 | B30 | 0.07
42 | B31 | 0.07
43 | B32 | 0.06
44 | B33 | 0.07
45 | B34 | 0.08
46 | B35 | 0.1
47 | B36 | 0.07

biological target: T2, PSMA Fab (006 PSMA Fab); assay: phage ELISA; biotinylated PSMA Fab on neutravidin plate, clonal phage supernatant, anti-M13 HRP detection;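 also: wells preincubated with PSMA antigen in blocking buffer or with blocking buffer only before clonal phage were added for a short incubation, then bound phage detected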
Description: as §2

Row | Binder | Phage binding ELISA signal, Anti-PSMA Fab
48 | B12 | 0.47
49 | B13 | 0.443
50 | B14 | 0.45
51 | B15 | 0.474
52 | B16 | 0.454
53 | B17 | 0.457
54 | B18 | 0.442
55 | B19 | 0.464
56 | B20 | 0.459
57 | B21 | 0.447

biological target: T3, Anti-CD28 Fab (SEQ ID NOs: 696, 697); assay: phage ELISA; clonal phage supernatant on biotinylated anti-CD28 Fab captured on neutravidin plate, anti-M13-HRP detection
Description: as §3

Row | Binder | Anti-CD28 Fab signal (phage binding ELISA)
58 | B22 | 2.16
59 | B23 | 2.21
60 | B24 | 2.15
61 | B25 | 2.18
62 | B26 | 2.22
63 | B27 | 2.14
64 | B28 | 2.18
65 | B29 | 2.14
66 | B30 | 2.15
67 | B31 | 2.18
68 | B32 | 2.18
69 | B33 | 2.15
70 | B34 | 2.15
71 | B35 | 2.23
72 | B36 | 2.17
